Variants at the floor of the assay were thinned out.
B1: TPR 5TU (parent)
chain: GGAUCUUCUCGAUCUAACAAAAAAGACAAAUCUGCCACAAAGCUUGAGAGCAUCUUCGGAUGCAGAGGCGGCAGCCUUCGGUGGCGCGAUAGCGCCAACGUUCUCAACUAUGACACGCAAAACGCGUGCUCCGUUGAAUGGAGUUUAUCAUG

Variants of: B1
Assay: polymerase ribozyme fitness, log enrichment relative to wild type (log ratio); higher = more active; in vitro selection for triplet polymerase activity
Procedure, shortened: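 Each subunit of a heterodimeric triplet polymerase ribozyme was mutagenized into a library by PCR, transcribed, and subjected to one round of in vitro selection, run in triplicate. Libraries were annealed with a biotinylated primer, the partner subunit and triplets, incubated frozen at −7 °C, and extended constructs were gel-excised, captured on streptavidin beads and recovered by RT-PCR. Input and output libraries were sequenced on Illumina, keeping genotypes with ≥10 input reads and ≥1 read per output. Fitness is log base 2 of genotype enrichment divided by wild-type enrichment, from inverse-variance-weighted replicate averages.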

Point of comparison: GGAUCUUCUCGAUCUAACAAAAAAGACAAAUCUGCCACAAAGCUAGAGAGCAUUUUCGGAUGCAGAGGCGGCAGCCUUCGGUGGCGCGAUAGCGCCAACGUUCUCAACUAUGACACGCAAAACGCGUGCUCCGUUGAAUGGAGUUUAUCAUG [U45A C54U], “polymerase ribozyme fitness (log ratio)” value -2.52. Against it:
- GGAUCUUCUCGAUCUAACAAAAAAGACAAAUCUGCCACAAAGCUAGAGAGCAUCUUCGGAUGCAGAGGCGGCAGCCUUCGGUGGCGCGAUGGCGCCAACGUUCUCAACUAUGACACGCAAAACGCGUGCUCCGUUGAAUGGAGUUUAUCAUG [U45A A91G] — lower, -4.12
- GGAUCUUCUCGAUCUAACAAAAAAGACAAAUCUGCCACAAAGCUAGAGAGCAUCUUCGGAUGCAGAGGCGGCAGCCUUCGGUGGCGCGAUUGCGCCAACGUUCUCAACUAUGACACGCAAAACGCGUGCUCCGUUGAAUGGAGUUUAUCAUG [U45A A91U] — lower, -3.74
- GGAUCUUCUCGAUCUAACAAAAAAGACAAAUCUGCCACAAAGCUAGAGAGCUUCUUCGGAUGCAGAGGCGGCAGCCUUCGGUGGAGCGAUAGCGCCAACGUUCUCAACUAUGACACGCAAAACGCGUGCUCCGUUGAAGGGAGUUUAUCAUG [U45A A52U C85A U139G] — lower, ≤ -4.2
- GGAUCUUCUCGAUCUAACAAAAAAGACAAAUCUGCCACAAAGCUAGAGAGCAUCUUCGGAUGCAGAGGCGGCAGCCUUCGGUGGCGCGAUAGCGCCAACGUUCUCAACUAUGACACGCAAAACGCGUGCUCCGUUGAAUGGAGUUUAUCAUG [U45A] — higher, -2.1
- GGAUCUUCUCGAUCUAACAAAAAAGACAAAUCUGCCACAAAGCUAGAGUGCAUCUUCGGAUGCAGAGGCGGCAGACUUCGGUCGCGGGAUAGCGCCAACGUUCUCAACUAUGACACUCAAAACGCGAGCUCCGUUGAAAGGAGUUUAUCAUU [U45A A49U C75A G83C C87G G117U U127A U139A G152U] — lower, ≤ -4.2
- GGAUCUUCUCGAUCUAACAAAAAAGACAAAUCUGCCACAAAGCUAGAGAGCAUCUUCGGAUGCAGAGGCGGCAGCCUUUGGUGGCGCGAUAGCGCCAACGUUAUCAACUAUGACACGUAAAACGCGUGCUCCGUUGAAUGGAGUUUAUCAUG [U45A C79U C103A C118U] — lower, ≤ -4.2
- GGAUCUUCUCGAUCUAACAAAAAAGACAAAUCUGCCACAAAGCUAGAGAGCAUCUUCGGAUGCAGAGGCGGCAGCAUUCGGUGGAGCGAUAGCGCCAACGUUCUCAACUAUGACACGCAAAACGCGUGCUCCGUUGAAUGGAGUUUAUCAUG [U45A C76A C85A] — lower, ≤ -4.2
- GGAUCUUCUCGAUCUAACAAAAAAGACAAAUCUGCCACAAAGCUAGAGAGCAUCUUCGGAUGCAGGGGCGGCAGCCUUCAGUGGCGCGAUAGCGCCAACGUUCUCAACUAUGACACGCAAAACGCGUGCUCCGUUGAAUGGGGUUUAUCAUG [U45A A66G G80A A142G] — lower, ≤ -4.2
- GGAUCUUCUCGAUCUAACAAAAAAGACAAAUCUGCCACAAAGCUAGAGAGCAUCUUCGGGUGCAGCGCUGGCAGCCUUCGGUGGCGCGAUAGCGCCAACGUUCUCAACUAUGACACGCAAAACGCGUGCUCCGUUGAAUGGAGUUUAUCAUG [U45A A60G A66C G68C C69U] — lower, ≤ -4.2
- GGAUCUUCUCGAUCUAACAAAAAAGACAAAUCUGCCACAAAGCUAGAGAGCAUCUUCGGCUGCAGAGGCGGCAGCCUUUGGUGGCGCGAUAGCGCCAAUGGUCUCAACUAUGACACGCAAAACGCGUGCUCCGUUUAAUGGAGUUUAUCAUG [U45A A60C C79U C99U U101G G136U] — lower, ≤ -4.2
- GGAUCUUCUCGAUCUAACAAAAAAGACAAAUCUGCCACAAAGCUAGAGAGCAUAUUCGGAUGCAGAGGCGGCAGCCUUCGGUGGCGCGAUAGCGCCAACGUUCUCAACUAUGACACGCAAAACGCGUGCUCCGUUGAAUGGAGUUUAUCAUG [U45A C54A] — lower, ≤ -4.2
- GGAUCUUCUCGAUCUAACAAAAAAGACAAAUCUGCCACAAAGCUAGAGAGCAUCUUCGGAUGCAGUGGCGGCAGCUUUCGGUGGGGCGAUAGCGCCAACGUUCUCAACUAUGACACGCAAAACGCGUGAUCCGUUGAAUGGAGUUUAUCAUG [U45A A66U C76U C85G C129A] — lower, ≤ -4.2
- GGAUCUUCUCGAUCUAACAAAAAAGACAAAUCUGCCACAAAGCUAGAGAGCAUCUUCGGAUGCAGAGGCGGCUGCCUUAGGUGGCGCGAUAGUGCCAACGUUCUCAACUAUGACACGCAAGACGCGUGCUCCGUUGAAUGGAGUUUAUCAUG [U45A A73U C79A C93U A121G] — lower, ≤ -4.2
- GGAUCUUCUCGAUCUAACAAAAAAGACAAAUCUGCCACAAAGCUAGAGAGCAUCUUCGGAUGCAGAGGCGGCAGCCUUCGGUGGCGCGAUAGCGCCUACGUUCUCAACUAUGACACGCAAAACGCGUGCUCCGUUGAAUGGAGUUUAUCAUG [U45A A97U] — lower, -2.84
- GGAUCUUCUCGAUCUAACAAAAAAGACAAAUCUGCCACAAAGCUAGAGAGCAUCUUCGGAUGCAGAGGCGGCAGCCUUCGGUGGCGCGAUAGCGCCAACGUUCUCCACUAUGACACGCAAAACGCGUGCUCCGUUGAAUGGAGUUUAUCAUG [U45A A106C] — higher, -0.488
- GGAUCUUCUCGAUCUAACAAAAAAGACAAAUCUGCCACAAAGCUAGAGAGCCUCUUCGGAUGCAGAGGCGGCCGCCUUCGGUGGCGCGAUUGCGCCAACGCUCUCAACUAUGACACGCAAAACGCGUGCUCCGUUGAAUGGAGUUUAUCAUG [U45A A52C A73C A91U U101C] — lower, ≤ -4.2
- GGAUCUUCUCGAUCUAACAAAAAAGACAAAUCUGCCACAAAGCUAGAGAGCAUCUUCGGAUGCAGAGGCGGGAGCCUUUGGUUGCGCGAUAGCGCCAACGUUCGCAACUAUGACACGCAAAACGCGUGCUCCGUUGAAUGGAGUUUAUCAUG [U45A C72G C79U G83U U104G] — lower, ≤ -4.2
- GGAUCUUCUCGAUCUAACAAAAAAGACAAAUCUGCCACAAAGCUAGAGGGCAUCUUAGGAGGCAGAGUCGGCAGCCUUCGGUGGCGCGAUAGCGCCAACGUUCUCAACUAUGAUACGCAAAACGCGUGCUCCGUUGAAUGGAGUUUAUCUUG [U45A A49G C57A U61G G68U C114U A150U] — lower, ≤ -4.2
